This assay concerns the target T1, FKBP-NFAST (UniProt P62942 2-108).
T1 construct: Expressed in HEK293T cells; also called cmyc-FKBP-linker-NFAST; pAG149; not shown: c-myc tag
In words: split-FAST fluorescence complementation, confocal imaging of HEK293T cells, 100 nM rapamycin, HMBR or HBR-3,5DOM. The method, then: FIG. 5A-B show HEK293T cells co-expressing FKBP-NFAST and FRB-CFASTn (n=10 or 11) which were labeled with 5 μM HMBR (FIG. 5A) or 10 μM HBR-3,5DOM (FIG. 5B) and imaged before and after addition of 100 nM rapamycin. Scale bars 10 μm. […] Cells expressing FAST were used as control. HMBR concentration was 10 μM. Excitation at 488 nm at 6.3 kW/cm2. Six cells were analyzed per condition. […] Scale bars 20 μm. […] Scale bars 20 μm.

T1 sequence (P62942 other isoform, or with tags, fused parts or gaps): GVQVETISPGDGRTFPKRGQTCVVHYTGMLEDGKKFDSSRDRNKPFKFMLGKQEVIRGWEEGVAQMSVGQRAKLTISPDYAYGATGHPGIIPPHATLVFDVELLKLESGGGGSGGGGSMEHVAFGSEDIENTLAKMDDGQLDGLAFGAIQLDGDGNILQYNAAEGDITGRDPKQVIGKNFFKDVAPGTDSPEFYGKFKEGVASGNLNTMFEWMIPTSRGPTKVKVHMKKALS

B1: FRB-CFAST11 (other)
chain: ILWHEMWHEGLEEASRLYFGERNVKGMFEVLEPLHAMMERGPQTLKETSFNQAYGRDLMEAQEWCRKYMKSGNVKDLTQAWDLYYHVFRRISKSGGGGSGGGGSGDSYWVFVKRV
notes: Expressed in HEK293T cells; also called cmyc-FRB-linker-CFAST(115-125); pAG152; not shown: c-myc tag
As for B1, the binding result is given as “binds”.

B2: FRB-CFAST10 (other)
chain: ILWHEMWHEGLEEASRLYFGERNVKGMFEVLEPLHAMMERGPQTLKETSFNQAYGRDLMEAQEWCRKYMKSGNVKDLTQAWDLYYHVFRRISKSGGGGSGGGGSGDSYWVFVKR
notes: also called FRB-CFASTn (n=10)
Regarding B2, the binding result was “binds”.

The values above are taken from patent US20220169682A1 (PARIS SCIENCES ET LETTRES, published 2022).
